# Test results published in patent WO1992011383A1.
# Target: recombinant human TNF-alpha (human) (UniProt P01375)
# Assay: Scatchard analysis in solution: 125I-TNF and unlabelled TNF, antibody captured on anti-IgG agarose beads
# Chain of UniProt P01375 (P01375 77-233 limits assumed): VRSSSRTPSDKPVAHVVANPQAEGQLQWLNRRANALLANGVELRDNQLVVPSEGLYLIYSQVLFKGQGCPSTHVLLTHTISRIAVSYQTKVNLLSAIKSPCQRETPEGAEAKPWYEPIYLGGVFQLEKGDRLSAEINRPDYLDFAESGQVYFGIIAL
substance,measurement,value
"CDP571 (CDR-grafted CB0010, gEU light chain / 2hEUg heavy chain) (antibody)",Kd,0.14 nM
